For this data set, the target named is TcaR (Staphylococcus epidermidis RP62A (ATCC …, UniProt A0A0H2VJZ8 1-151)). The data set can be described thus: X-ray crystallography; 1:1 TcaR dimer:ssDNA; 40% ethylene glycol, 0.1 M Tris pH 7.0; 3.6 A; EMSA: 20 mM Tris-HCl pH 8.0, 150 mM KCl, 0.1 mM MgCl2, 0.05 mM EDTA, 12.5% glycerol, 0.1 mM DTT, 1 mg/ml BSA, 15 min, room temperature; ssDNA 12 uM, TcaR 2-24 uM. The following applies: protein: recombinant; tags: N-terminal His6; chain copies: 2; single strand. For orientation: A gel shift assay detects complexes by their altered migration in electrophoresis.

B1: 17-mer GC-rich ssDNA (ssDNA)
DNA: CGCAGCGCGCAGCCCTA
Take B1: the binding result is given as “binds”.
